One molecule from publication PMC4974663, “The ATPase hCINAP regulates 18S rRNA processing and is essential for embryogenesis and tumour growth” (Nature Communications, 2016) can be followed below.

This test has as its target T1, GST-RPS14 (UniProt P62263 1-151).
T1 construct: ribosomal protein RPS14; also called recombinant GST-RPS14
Put plainly: pull-down; GST-RPS14 and His-hCINAP incubated in 1 ml NP-40 lysis buffer (50 mM Tris pH 8.0, 150 mM NaCl, 1% NP-40) for 2 h at 4 °C, then ATP or AMP-PNP at 1 mM with 5 mM MgCl2 for 1 h; GST beads 1 h; western blot. The note with it: both partners purified. A general note: In western blotting, separated proteins are transferred to a membrane and probed.

B1: His-hCINAP (enzyme)
chain: MLLPNILLTGTPGVGKTTLGKELASKSGLKYINVGDLAREEQLYDGYDEEYDCPILDEDRVVDELDNQMREGGVIVDYHGCDFFPERWFHIVFVLRTDTNVLYERLETRGYNEKKLTDNIQCEIFQVLYEEATASYKEEIVHQLPSNKPEELENNVDQILKWIEQWIKDHNS
notes: also called His6-hCINAP
On to B1, for which the binding result is listed as “binds”.
